According to a protein production outcome set (Wang et al. 2014):

Experiment: label from the status in PepcDB records
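Further: failed if final PepcDB status was selected cloned or expressed and not failed if soluble or beyond.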

Question: For “MKKDVLIFVKGTQEYPINSLENSIEFFTEGTFYKKGESFYVTYKESELTGLEGTTTTFKIQPNHITLIRYGDVTSTLIFEPGKRHISTYITEEGVIMIGVYTKKMKVDLTENGGEVFVEYAIDLDSHMMSENDFLLKIKEAGVKNLEHHHHHH”, which protein production is on record?
Answer: The protein production was “not failed”.

Question: Which protein production does the source give for “MKKEAESLIEKEHGTNPKISRYWIQRYDLFSKYDQGIEMDEEGWYSVTPEEIAIKQAERCRGKVVIDCFSGVGAIDIDPMKIALAMNNAKVYGVANRIDFVTGDFMQLAPSLKGDVLFLSPPWGGPTYSKVESYKLDMLLPRDGGVERVDSLTHESHNMTRSMKLKKRSRLKKEVKSTIEKDNGRRHKITKYWIQRYDLFSRYDQGIEMDEEGWYSVTPEEIAIKQAQRYRGKVVIDCFSGVGGNTIQFAKVCSSVVAIDIDPVKVELAMNNAMVYGVANRVDFVIGDFIQLAPSLKGDVVFLSPPWGGPMYRDFESYNLDMLQPRDGYSLFQIAQSITPNIIMFLPRNVDLAQVEELAWLSSPPLNLEIEENFVGGRMKAVTAYFSCNAV” here?
Answer: The protein production was “not failed”.

Question: With “MKKFFIIGTDTEVGKTYISTKLIEVCEHQNIKSLCLKPVASGQSQFSELCEDVESILNAYKHKFTAAEINLISFNQAVAPHIIAAKTKVDISIENLKQFIEDKYNQDLDILFIEGAGGLLTPYSDHTTQLDLIKALQIPVLLVSAIKVGCINHTLLTINELNRHNIKLAGWIANCNDSNIKYIDEQINTIEELSGYKCSAKISRNADYLDFIDLSKILISPEENE” as the sequence, how does the protein production read?
Answer: Its protein production is “not failed”.

Question: With “MKKFLFDLFPLILFFVAYRYADIYAATAVAITASIAQILWLRLTGKAIEGMHWINLSVIVIFGGATLWLHSDVFIKWKPTVLYWLFGGALLGARYLFGRNLVRRLLGKQIALPDPVWERLNLSWALFFVAAGAVNLYVAFSGHFTESQWVNFKVFGLMGLLVAFVIAQSLWLGKHLQASDTPDQDRNED” as the sequence, how does the protein production read?
Answer: The protein production was “not failed”.

Question: With “MKKFLFILSLFCVLSYAYELKLNANITALKLDKQNLYIGTDKGEILQYNIKDKSLKELLSLPKIKNYYGDDFAKIYNIDIFKHTLLILSEGDFGAKNLSFYKENLQIKKLEENSIIKAFFINENTYLLISIGSEIELIDKSLKNIKKFNFSHSSLNDAVLNEDKSRLIAGFESGEVELFDLKNWKMLKNYDKMHKDNIYQVDFKNNVILSCGTDRRIGVVKNEEQNFLQKDFLIYTCALSPSGEFAVYSDNEAGVSEVFSTSDFKPVKTFNNENLMSEFIIFLNNKDFIVSGFGDSIMFRSIDE” as the sequence, how does the protein production read?
Answer: The protein production was “failed”.

Question: With “MKKFLSFISFATIVSLVLSVFAKPYTEILRFKTTQQIAPRTYYEKYELLTDEGFVDINCIKLDLIDGGFDFDVLKSKVANTGDFVYNMVSSQIDKNPIAAINANFFYTNTKTDYNKIWPIGISVSGGKILSSPNNKQNTFPAFVYTTSNEILFDYINGLLYKLVNLDSGYEFKIAHVNKFTGDLTYPILFTGDYVQKTIGNKYKGIVELIIKDGIIKDIREEKQTVALDKNEYLLVATGNYAKNLKANFKVGDKVSLKIDLSIPLEKIKAAASGNTFLLKDGKIPSFTHEIAGRHPRSAIGIDKTGRYLYLVAVDGRNGKSIGLSQGELASFLQSIDVWTAINLDGGYSTQLIAKDNDGKFKAFYNIGETRKVFDSIAAFYKYRDDKIATFYIDCPDRVFAGEEYPIKVYAKDRFYNTITYDAVYLKVYQDAYEIDIKDGTFIPYKDGVVTISCVYEDVYQKAFAQKKISVYKPEILTTNKKQLYLLPGESARLRFYIKDKLGHFKEIDPRKVQAEKNPAFEFKDGSFIAKSNFRGFVTFSYKDLKCSIPVGIGETLQLLRSFDYLALSWPKGVSMFLSSKNKTQGKYSNKVYFSVSSTKGKSFKLNFKTPVDLTNINKISFDLCAKNVKVYLGFKMPNGTQKEVEIPQSKSDNFKSYSLNVESYKTLDYILLIPQKTQGYIWIDNLKGNVVNLPPVEAINQYVAKFDSKLAKSSVILLTKSFESLPSDTKKKVESNLGSYLKCYNLEKGNPPYEKNEKFNIVFLRTKSGSILDFSFYQWIRIKNLSAEKKPLIVVLDIPFESLKQNEKDILIRLLKSRKAPSMIICTTSDYTRVERYDTLYIGYASSNDLLAKSSTKSVNLACDVEKGYIYLARGY” as the sequence, how does the protein production read?
Answer: Its protein production is “failed”.

Question: For “MKKIAVFADVQNLYYTVRQAYGCHFNYAALWADISKRGEIVHAFAYAIDRGDSKQQQFQQILRNLGFTVRLKPYIQRSDGSAKGEWDVGITIDIMDFAPQVDEVVLASGDGDFDMLLDRVISKHGVEAVAYGVPGLTANSLIRAASRYVPIEGALL”, which protein production is on record?
Answer: Its protein production is “not failed”.

Question: With “MKKIEIFDPAMCCPTGLCGTNINPELMRIAVVIESLKKQGIIVTRHNLRDEPQVYVSNKTVNDFLQKHGADALPITLVDGEIAVSQTYPTTKQMSEWTGVNLD” as the sequence, how does the protein production read?
Answer: Its protein production is “not failed”.

Question: Which protein production does the source give for “MKKIFYISLGFISLGIGIAGIVLPVVPTTPLVLLSAFCFSRSSEKFDIWLRQTKVYKYYAADFVESRSIAPARKKSMIWQIYILMGISIYFAPLMWLKLGLLIGTIVGTYVLFYVVPDKIDE” here?
Answer: The protein production was “failed”.

Question: For “MKKIGIIGAGGIARAHATALSTIKNAELVGVYDINQQNAESFVKTFGGKSFENVDELIDASEGLIVASPNFCHKEHALQALGKHKHVLCEKPMAISLEEASIMKDTAERLSVRASMGFNYRYLSYVNILKSLIINNELGNILSIKVHFKKNSALRRKKFTWRDDANSKKTSGSLGDLGIHLIDMVWYLFESDFITESVRAKMNTNVKTKEDKQVLVDDYAEIYGQLRNKVFVNIITSKCSVPEDCGFSIEVVGHKKEFKYHTGNPHVYKLIDGLNVVDCPVPQSLLNDPPNEFYGWADSFRSELINWIASTQNDWVEIPSFSDGFRSQEVLEMFFEKDS”, which protein production is on record?
Answer: The protein production was “failed”.

Question: With “MKKINSAVLSIASNSMLIIFKLTAGITMNSISVLSEGVHSSIDLIASLIAFFSIKKSSLKEDDDHPFGHGKYENVSGFVEAILIMFAAIMIIYEAFNKLVSNSHVKNIDSGIYIMLISSAVNLFISIILLKSSKDTNSIALEADGMHLFTDFFTSLGVFLGLVLLKLTNIKIIDSITAFLVAILIIKTAVDLIKKSLRDLVDSSLDKDDINKIVKIVKKYPNIKEYHKLRTRRCGNTREIDIHIQIVGTDSLKETHDICSSIEDEIRRVFPDSCTVIHAEPYIEKFHKKSLT” as the sequence, how does the protein production read?
Answer: Its protein production is “failed”.

Question: For “MKKITIISGHPNHESSISNKAILEYLESNVMESQLNIRKLEDLNTHFEFNVIQEQEALLQADTIIFQFPLFWYSFPALMKKWIDDVICYGFAFGGEKGAQLKDKQFIFSFTIGGQESAYGNEKEIALTIDELLKPLKQMLRYCQVKDINYVYSHNMLYIPDMYGSIEDINVRSECHAIKLLSMVN”, which protein production is on record?
Answer: The protein production was “failed”.

Question: For “MKKKKYLKWWIAAVSAVFIVGAGIFVYTQYKAAQTSGDVATKDGTSASASDITWNGKTYSYNEHLSNFLFLGIDTKEKAETKTGQADAGQADALYLLSWNRLEGDITVISIPRDTMTQIETFGPGGKSLGKSKDHISLSYAYGDGGYESCELAENAVSELLYGLPIDGYCALNMDGLPVLTDSVGGVTVTVPNDSLAEVDPGYAKGAVVTLKGEDTEQFVRYRNTEISQSAIARMERQQEYIRAFGEALKKASADKALVTDLYKAIEPYMVTNMGKSRFVDLTESVSEGKKVNRWTIPGEGIQGKEYDEYVVDDDALYEKTVETFYVEKK”, which protein production is on record?
Answer: Its protein production is “failed”.

Question: For “MKKKKYVNSGTVTLLSFAVESECTFLDYIKGGTQINFTVAIDFTASNGNPSQSTSLHYMSPYQLNAYALALTAVGEIIQHYDSDKMFPALGFGAKLPPDGRVSHEFPLNGNQENPSCCGIDGILEAYHRSLRTVQLYGPTNFAPVVTHVARNAAAVQDGSQYSVLLIITDGVISDMAQTKEAIVNAAKLPMSIIIVGVGQAEFDAMVELDGDDVRISSRGKLAERDIVQFVPFRDYVDRTGNHVLSMARLARDVLAEIPDQLVSYMKAQGIRPRPPPAAPTHSPSQSPARTPPASPLHTHI”, which protein production is on record?
Answer: The protein production was “failed”.

Question: For “MKKKNKLLFILGIIGPGLITVNAGNDAGGIATYATVGASYGYKMLWGLLLITFSLAIIQEMNARMAVVTGKGLSDLIRENYGVKWSLFAMCILFIANFGVCVGDFAGIAASLELFGISKYITVPIMAFLVWFVITKGSYEKTEKVFLAFTFVFFTYIITCIKVHPNWNVVMKATITPSLSFTKGYVLTLIGMIGTTITPYMQFYLQSSVVDKGLSVKEYKYEKIDVYLGAIWGDLVSFFIIVCTAVTLYKAGIKIDSAEQAAMALKPLAGNYATILFAAGLFGASVLATMVIPLSTTYAICEAFGFESGLDNSFSEAKTFYGIFTFMILFSAALVLVPKLSLVGIMLITQQIAGILSPVILIFMVLLINNKDIMGKYINNKLQNVIVYLTVAFIIILSLILFVSPIIDKLM”, which protein production is on record?
Answer: The protein production was “failed”.

Question: For “MKKKYFLCVFAVILFFTGFLFGNSPVNAAETDTSNVTYNYIDISTLTETQKNSIIKGNPNETLTNDYENYSFVYQKNTSEPTTNTDNTSDNNKNQNGTLLKAGDVGPNSYLIILGFILFGSGIGLLTLKKRHARQLLVFLVVLGGSSLLVGSIVQATENSNLKTQESQTVAKGTKETKQPESMEGYTYVGYIHTSKNNTPPVVEKGTVTVNYQDEQGNSLATSETLEGDIDQPYQTATKNIEGYQLKEVNGNTTGTFTEKAQVVTYVYQKVPVATVTVKYLDQDGNKIHDPQTISGNIGEPYDASTDKYKLRIEGYTLDTTKLPNNANGTFTNQAIEVTYIYTKEAQDVKITIKFVDSNGDPFVLTDLTTYKNGDLVPIYPNLDQYHMRLNYNQEIYNQGEAVPDIVIPAKEGETYSLPERMTFNILDDQGKQIPYVISQNADLSSTGIERWENYLSIPTNREGTLTSEDVVVTYQILVYGVMIPEP”, which protein production is on record?
Answer: Its protein production is “failed”.

Question: With “MKKLFMSAVALLFAGALWAQENPLWMRHCAISPDGTTIAFTYKGDIFTVPVSGGKATQITTNPAFDTTPIWSPDSKQIAFASDRMGSMDVFIVSKDGGEPRRLTTFSGGETPVAFTDAGHILFTADIMPSTEDAGFPSNGQFQQIYQIPVSGGRPVMFSSMPMECISINKEGTILYQDKKGYEDYWRKHQKSPIARDIWMLRPGQTPRYEKQTTFIGEDREPVWAPDGKSFYYLSEENGTFNVYQRTPGSDTSKQVTHHKQHPVRFLSMASNGNLCYGFDGEIYTLAPGGKPQKVSVKILSDRNDKDLIRQIKTSGATEMAVSPDGKEVAFILRGDVYVTSVEYKTTKQVTNTPCQERGIDFAPDGRTLVYASERGGLWQLYTSTIVRKDEKQFTYATELKEERLTNSDIASFNPKYSPDGKEIAFLENRTAIRVINLKTKKVRTVMDAQYQYSYSDGDQWFEWSPDSKWILSEFIGIGGWNNKDIVLLNADGKGEMHNLTESGYSDGNAKWVLGGKAMVWFSDRAGYRSHGSWGAQYDAYIMFFDVDAYDRFRMNKEDLALLEEAEKAEKAEKEKAEKKKKENKKDDKKKDAKEKNKKDGDEEKKEEVKPLKFDLDNRFDRIVRLTVNSSFMGDAVLTPKGDKLYYLAAFESGYDLWEHDLKENSTKILLKGVGGGSLLPDKKGENIFMCTGGGMKKIEIAGSKTTPIAFESFFDYQPGGERAYIFDHVWQQVDDKFYVKDLQGVDWPLYKKSYEKFLPYINNNYDFAELLSEMLGELNASHTGARYSGAGGALATAALGVFYDDTYNGDGLKIKEIIEQGPFTLKKTDVKPGCIIEKVDGTLIKKGEDYFPLFEGKVGRKVLLSVYDPATKKRFEETVKAISYGAQRELLYKRWVERNRKKVEELSGGRLGYVHIKGMDSQSFRKMYSELLGRYRNKEAVVVDVRHNGGGWLHDDVVTLLSGKEYQRFVPRGQYIGSDPFNKWLKPSCMLVCEDNYSNAHGTPYVYKTLGIGKLVGTPVAGTMTAVWWERQIDPSLVFGIPQVGCMDMQGNYLENHTLEPDVLIYNEPAASLKGEDAQLKAAVDCLLKELPKK” as the sequence, how does the protein production read?
Answer: The protein production was “failed”.

Question: With “MKKLIIAALGLTLILSGCAPKLDSNDKVVQKDDKKAETGIMTKNQISSNYYKTVLPYKASKSRGLVVSNIYSRYDINELESGLMRVSQNKYSPDNYLFQEGQYLDKETLEKWLDRKSEKNPNGLNPESNGDGKDRKPIYLAHILEQDYLKQTDKDTVALGGISIALAMNSVDYYQKEQYGDTFEQEISDSDLLAQGKEMSGTVLNRIRQTKGLENVPVTIAIYKQGPRDAVAPGNFLTYATANGDSLSSWKDVEEKNYVLPSTESAKDHKTDNDNFLNFKKAIEDYYPNFTGVVGRARYEDGQLAELSIDIPLQFYGQAEIIGFTQYVTDLVGQHIPKTADLQVNISTSDGPAALITRKANEDAATAHIYD” as the sequence, how does the protein production read?
Answer: Its protein production is “failed”.
